T1: human GIP receptor (human) (UniProt P48546)
T1 sequence (looked up): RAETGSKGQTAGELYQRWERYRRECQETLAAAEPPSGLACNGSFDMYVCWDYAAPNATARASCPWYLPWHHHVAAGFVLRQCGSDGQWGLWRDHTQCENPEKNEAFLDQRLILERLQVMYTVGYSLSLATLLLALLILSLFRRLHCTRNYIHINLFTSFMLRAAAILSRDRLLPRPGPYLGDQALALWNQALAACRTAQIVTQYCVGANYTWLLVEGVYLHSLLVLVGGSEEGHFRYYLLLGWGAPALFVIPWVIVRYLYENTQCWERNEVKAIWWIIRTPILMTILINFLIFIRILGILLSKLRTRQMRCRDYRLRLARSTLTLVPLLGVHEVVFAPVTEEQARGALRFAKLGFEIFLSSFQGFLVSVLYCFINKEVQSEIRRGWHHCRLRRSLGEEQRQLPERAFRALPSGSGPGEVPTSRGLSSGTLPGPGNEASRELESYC

B1: Example 483 (peptide)
chain: YXQGTXTSDXXIXLDXKAQXNFIEYLIEGGPSSGEPPPEGE
modifications: synthetic construct; SITE 2: note = 2-Aminoisobutyric Acid; SITE 6: note = alpha-methyl-2-fluoro-L-phenylalanine; SITE 10: note = 3-(4-Pyridyl)-L-alanine; SITE 11: note = alpha-methyl-L-serine; SITE 13: note = alpha-methyl-leucine; SITE 16: note = L-ornithine; SITE 17: note = Lysine is chemically mo
B2: Example 481 (peptide)
chain: YXQGTXTSDXXIXLDXKAQXXFIEXLIEGGPSSGEPEPSEG
modifications: synthetic construct; SITE 2: note = 2-Aminoisobutyric Acid; SITE 6: note = alpha-methyl-2-fluoro-L-phenylalanine; SITE 10: note = 3-(4-Pyridyl)-L-alanine; SITE 11: note = alpha-methyl-L-serine; SITE 13: note = alpha-methyl-leucine; SITE 16: note = L-ornithine; SITE 17: note = Lysine is chemically mo
B3: Example 489 (peptide)
chain: B2 chain with X11S, X25Y, E37P
modifications: synthetic construct; SITE 2: note = 2-Aminoisobutyric Acid; SITE 6: note = alpha-methyl-2-fluoro-L-phenylalanine; SITE 10: note = 3-(4-Pyridyl)-L-alanine; SITE 13: note = alpha-methyl-leucine; SITE 16: note = L-ornithine; SITE 17: note = Lysine is chemically modified through conjugation of the epsil
B4: Example 471 (peptide)
chain: YXQGTXTSDYSILLDKKAQXAFIEYLEEGGPSSGAPPPEEG
modifications: synthetic construct; SITE 2: note = 2-Aminoisobutyric Acid; SITE 6: note = alpha-methyl-2-fluoro-L-phenylalanine; SITE 17: note = Lysine is chemically modified through conjugation of the epsilon-amino group of the Lysine side chain with (gamma-Glu)2-CO-(CH2)16-CO2H; SITE 20: note = 2-Aminoisobutyric
B5: Example 464 (peptide)
chain: YXQGTXTSDXXILLDKKAQXAFIEYLEEGGPSSGAPPPE
modifications: synthetic construct; SITE 2: note = 2-Aminoisobutyric Acid; SITE 6: note = alpha-methyl-2-fluoro-L-phenylalanine; SITE 10: note = 3-(4-Pyridyl)-L-alanine; SITE 11: note = alpha-methyl-L-serine; SITE 17: note = Lysine is chemically modified through conjugation of the epsilon-amino group of the Lysine
B6: Example 469 (peptide)
chain: B5 chain with X10Y, A35E
modifications: synthetic construct; SITE 2: note = 2-Aminoisobutyric Acid; SITE 6: note = alpha-methyl-2-fluoro-L-phenylalanine; SITE 11: note = alpha-methyl-L-serine; SITE 17: note = Lysine is chemically modified through conjugation of the epsilon-amino group of the Lysine side chain with (2-[2-(2-Amino-ethoxy)-e)
B7: Example 487 (peptide)
chain: B5 chain with X11S, L13X, A35E
modifications: synthetic construct; SITE 2: note = 2-Aminoisobutyric Acid; SITE 6: note = alpha-methyl-2-fluoro-L-phenylalanine; SITE 10: note = 3-(4-Pyridyl)-L-alanine; SITE 13: note = alpha-methyl-leucine; SITE 17: note = Lysine is chemically modified through conjugation of the epsilon-amino group of the Lysine
B8: Example 465 (peptide)
chain: B5 chain
modifications: synthetic construct; SITE 2: note = 2-Aminoisobutyric Acid; SITE 6: note = alpha-methyl-2-fluoro-L-phenylalanine; SITE 10: note = 3-(3-Pyridyl)-L-alanine; SITE 11: note = alpha-methyl-L-serine; SITE 17: note = Lysine is chemically modified through conjugation of the epsilon-amino group of the Lysine
B9: Example 468 (peptide)
chain: B5 chain with X10Y
modifications: synthetic construct; SITE 2: note = 2-Aminoisobutyric Acid; SITE 6: note = alpha-methyl-2-fluoro-L-phenylalanine; SITE 11: note = alpha-methyl-L-serine; SITE 17: note = Lysine is chemically modified through conjugation of the epsilon-amino group of the Lysine side chain with (2-[2-(2-Amino-ethoxy)-e)
B10: Example 467 (peptide)
chain: B5 chain with X10Y, I12E
modifications: synthetic construct; SITE 2: note = 2-Aminoisobutyric Acid; SITE 6: note = alpha-methyl-2-fluoro-L-phenylalanine; SITE 11: note = alpha-methyl-L-serine; SITE 17: note = Lysine is chemically modified through conjugation of the epsilon-amino group of the Lysine side chain with (2-[2-(2-Amino-ethoxy)-e)

Where a chain is given by its changes, count along the chain named.

Chain of human glucagon receptor (human) (P47871 26-477): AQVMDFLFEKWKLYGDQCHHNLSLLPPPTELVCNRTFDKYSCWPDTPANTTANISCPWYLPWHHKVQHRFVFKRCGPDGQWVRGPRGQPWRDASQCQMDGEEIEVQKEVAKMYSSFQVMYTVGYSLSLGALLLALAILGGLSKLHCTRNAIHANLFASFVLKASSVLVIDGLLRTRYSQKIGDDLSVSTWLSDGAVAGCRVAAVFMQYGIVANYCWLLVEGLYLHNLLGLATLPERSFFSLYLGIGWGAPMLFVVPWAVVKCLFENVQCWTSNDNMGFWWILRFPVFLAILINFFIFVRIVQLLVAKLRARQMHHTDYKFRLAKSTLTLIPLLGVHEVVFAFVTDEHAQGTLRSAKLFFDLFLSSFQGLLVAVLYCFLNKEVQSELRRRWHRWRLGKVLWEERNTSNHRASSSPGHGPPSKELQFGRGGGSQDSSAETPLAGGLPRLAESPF
Chain of hGLP-1R (P43220 24-463): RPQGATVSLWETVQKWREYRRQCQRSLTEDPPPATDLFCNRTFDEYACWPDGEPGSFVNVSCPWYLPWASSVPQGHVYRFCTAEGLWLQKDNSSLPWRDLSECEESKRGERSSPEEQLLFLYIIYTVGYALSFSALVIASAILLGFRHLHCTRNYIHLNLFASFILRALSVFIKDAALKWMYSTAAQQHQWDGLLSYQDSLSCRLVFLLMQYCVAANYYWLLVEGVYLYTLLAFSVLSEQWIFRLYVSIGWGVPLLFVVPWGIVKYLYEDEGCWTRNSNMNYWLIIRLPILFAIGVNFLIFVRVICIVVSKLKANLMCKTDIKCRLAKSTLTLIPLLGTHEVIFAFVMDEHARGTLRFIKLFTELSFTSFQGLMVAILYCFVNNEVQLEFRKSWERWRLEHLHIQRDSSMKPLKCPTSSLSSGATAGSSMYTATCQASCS

One experiment addresses human glucagon receptor (human) (UniProt P47871). As to the kind of experiment: cell-based or functional assay.
As for B1, the Relative cAMP EC50, nM (0.1% casein) stood at 1.77 nM and the cAMP Rel EC50 (receptor-expressing HEK-293 cells, 1% HSA) was 231 nM.

For B2, the Relative cAMP EC50, nM (0.1% casein) was 1.22 nM and the cAMP Rel EC50 (receptor-expressing HEK-293 cells, 1% HSA) was found to be 100 nM.

Turning to B3, the Relative cAMP EC50, nM (0.1% casein) stood at 2.31 nM and the cAMP Rel EC50 (receptor-expressing HEK-293 cells, 1% HSA) was 523 nM.

For the molecule B4, the Relative cAMP EC50, nM (0.1% casein) worked out at 2.19 nM and the cAMP Rel EC50 (receptor-expressing HEK-293 cells, 1% HSA) stood at 181 nM.

The molecule B5 came in with a Relative cAMP EC50, nM (0.1% casein) of 1.25 nM and a cAMP Rel EC50 (receptor-expressing HEK-293 cells, 1% HSA) of 194 nM.

With B6, the Relative cAMP EC50, nM (0.1% casein) turned out to be 1.34 nM and the cAMP Rel EC50 (receptor-expressing HEK-293 cells, 1% HSA) amounted to 155 nM.

Take B7: the Relative cAMP EC50, nM (0.1% casein) is 5.36 nM and the cAMP Rel EC50 (receptor-expressing HEK-293 cells, 1% HSA) worked out at 477 nM.

Molecule B8 gave a Relative cAMP EC50, nM (0.1% casein) of 1.5 nM and a cAMP Rel EC50 (receptor-expressing HEK-293 cells, 1% HSA) of 233 nM.

B9: the Relative cAMP EC50, nM (0.1% casein) was found to be 1.95 nM and the cAMP Rel EC50 (receptor-expressing HEK-293 cells, 1% HSA) was found to be 195 nM.

B10 had a Relative cAMP EC50, nM (0.1% casein) of 9.34 nM and a cAMP Rel EC50 (receptor-expressing HEK-293 cells, 1% HSA) of 850 nM.

The target of another experiment is T1, human GIP receptor (human). Description: cell-based or functional assay.
Molecule B1 displayed a Relative cAMP EC50, nM (0.1% casein) of 0.0133 nM and a cAMP Rel EC50 (receptor-expressing HEK-293 cells, 1% HSA) of 1.17 nM.

As for B2, the Relative cAMP EC50, nM (0.1% casein) was 0.0164 nM and the cAMP Rel EC50 (receptor-expressing HEK-293 cells, 1% HSA) amounted to 1.19 nM.

B3 yielded a Relative cAMP EC50, nM (0.1% casein) of 0.0121 nM and a cAMP Rel EC50 (receptor-expressing HEK-293 cells, 1% HSA) of 1.25 nM.

Molecule B4 came in with a Relative cAMP EC50, nM (0.1% casein) of 0.0296 nM and a cAMP Rel EC50 (receptor-expressing HEK-293 cells, 1% HSA) of 5.45 nM.

Turning to B5, the Relative cAMP EC50, nM (0.1% casein) is 0.072 nM and the cAMP Rel EC50 (receptor-expressing HEK-293 cells, 1% HSA) was 19.9 nM.

With B6, the Relative cAMP EC50, nM (0.1% casein) turned out to be 0.031 nM and the cAMP Rel EC50 (receptor-expressing HEK-293 cells, 1% HSA) was 4.24 nM.

Regarding B7, the Relative cAMP EC50, nM (0.1% casein) was determined as 0.0286 nM and the cAMP Rel EC50 (receptor-expressing HEK-293 cells, 1% HSA) amounted to 2.26 nM.

The molecule B8 showed a Relative cAMP EC50, nM (0.1% casein) of 0.148 nM and a cAMP Rel EC50 (receptor-expressing HEK-293 cells, 1% HSA) of 44.6 nM.

With B9, the Relative cAMP EC50, nM (0.1% casein) stood at 0.0222 nM and the cAMP Rel EC50 (receptor-expressing HEK-293 cells, 1% HSA) came out at 4.76 nM.

With B10, the Relative cAMP EC50, nM (0.1% casein) worked out at 0.0855 nM and the cAMP Rel EC50 (receptor-expressing HEK-293 cells, 1% HSA) is 10.7 nM.

Another experiment has as its target hGLP-1R (Homo sapiens, UniProt P43220). Description: cell-based or functional assay.
Take B1: the Relative cAMP EC50, nM (0.1% casein) was found to be 0.188 nM and the cAMP Rel EC50 (receptor-expressing HEK-293 cells, 1% HSA) was 18.2 nM.

In the case of B2, the Relative cAMP EC50, nM (0.1% casein) was 0.204 nM and the cAMP Rel EC50 (receptor-expressing HEK-293 cells, 1% HSA) came to 14.2 nM.

In turn, B3 yielded a Relative cAMP EC50, nM (0.1% casein) of 0.172 nM and a cAMP Rel EC50 (receptor-expressing HEK-293 cells, 1% HSA) of 11.8 nM.

As for B4, the Relative cAMP EC50, nM (0.1% casein) turned out to be 0.317 nM and the cAMP Rel EC50 (receptor-expressing HEK-293 cells, 1% HSA) is 37.9 nM.

The molecule B5 displayed a Relative cAMP EC50, nM (0.1% casein) of 0.466 nM and a cAMP Rel EC50 (receptor-expressing HEK-293 cells, 1% HSA) of 45.5 nM.

In the case of B6, the Relative cAMP EC50, nM (0.1% casein) stood at 0.562 nM and the cAMP Rel EC50 (receptor-expressing HEK-293 cells, 1% HSA) amounted to 61.7 nM.

B7 showed a Relative cAMP EC50, nM (0.1% casein) of 0.639 nM and a cAMP Rel EC50 (receptor-expressing HEK-293 cells, 1% HSA) of 27.7 nM.

In turn, B8 returned a Relative cAMP EC50, nM (0.1% casein) of 0.575 nM and a cAMP Rel EC50 (receptor-expressing HEK-293 cells, 1% HSA) of 56.3 nM.

As to B9, the Relative cAMP EC50, nM (0.1% casein) stood at 0.466 nM and the cAMP Rel EC50 (receptor-expressing HEK-293 cells, 1% HSA) was 30.7 nM.

B10 yielded a Relative cAMP EC50, nM (0.1% casein) of 0.358 nM and a cAMP Rel EC50 (receptor-expressing HEK-293 cells, 1% HSA) of 36.4 nM.

Values taken from US20240270821A1, “GIP/GLP1/GCG TRI-RECEPTOR AGONISTS AND USES THEREOF” (priority 2023, published 2024).
